This passage reports binding result, Kd and binding signal results from publication PMC11077049, “Unearthing a novel function of SRSF1 in binding and unfolding of RNA G-quadruplexes”.

The target of series [1] is T1, SRSF1 RS (human, UniProt Q07955 199-248).
T1 chain: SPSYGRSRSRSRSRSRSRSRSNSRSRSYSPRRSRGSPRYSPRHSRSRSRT
Nature of the series: STD NMR; 0.5 mM RNA, 10 uM RS, D2O; no signal above noise; FP, 10 nM RNA, 37 C 30 min then 25 C 10 min; 21-mers: 25 mM KCl, 0.25 M Arg/Glu, 20 mM Tris-HCl pH 7.5, 0.1 mM EDTA, 0.1 mM TCEP, 0.02% Tween 20; 8-mers: 35 mM. To be noted: protein: recombinant; tags: none (SUMO cleaved).

In series [2] the target is T1, SRSF1 RS. Nature of the series: FP; 8-mer buffer, 35 mM K3PO4; FP, 10 nM RNA, 37 C 30 min then 25 C 10 min; 21-mers: 25 mM KCl, 0.25 M Arg/Glu, 20 mM Tris-HCl pH 7.5, 0.1 mM EDTA, 0.1 mM TCEP, 0.02% Tween 20; 8-mers: 35 mM. To be noted: protein: recombinant, tags: none (SUMO cleaved), label: 5' fluorescein.
Series [3] addresses T2, SRSF1 RRM tandem (human, UniProt Q07955 1-196). Nature of the series: FP; FP, 10 nM RNA, 37 C 30 min then 25 C 10 min; 21-mers: 25 mM KCl, 0.25 M Arg/Glu, 20 mM Tris-HCl pH 7.5, 0.1 mM EDTA, 0.1 mM TCEP, 0.02% Tween 20; 8-mers: 35 mM. To be noted: protein: recombinant, tags: none (SUMO cleaved), label: 5' fluorescein.
The target in series [4] is T1, SRSF1 RS. The series is described as above. To be noted: protein: recombinant, tags: none (SUMO cleaved), label: 5' fluorescein.
The next series deals with SRSF1 full-length (human, UniProt Q07955 1-248). The description is as above. To be noted: protein: recombinant, tags: none (pSMT3 His-SUMO, Ulp1 cleaved), label: 5' fluorescein.
Series [5] has as its target T2, SRSF1 RRM tandem. The description is as above. To be noted: protein: recombinant; tags: none (SUMO cleaved); label: 5' fluorescein.
In series [6] the target is T1, SRSF1 RS. Nature of the series: STD NMR; 0.5 mM RNA, 10 uM RS, D2O; strongest signal; FP, 10 nM RNA, 37 C 30 min then 25 C 10 min; 21-mers: 25 mM KCl, 0.25 M Arg/Glu, 20 mM Tris-HCl pH 7.5, 0.1 mM EDTA, 0.1 mM TCEP, 0.02% Tween 20; 8-mers: 35 mM. To be noted: protein: recombinant; tags: none (SUMO cleaved).
In the next series the target is T3, RRM1/RRM2 linker (human, UniProt Q07955 92-120).
T3 chain: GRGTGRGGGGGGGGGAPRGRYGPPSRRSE
Nature of the series: FP; FP, 10 nM RNA, 37 C 30 min then 25 C 10 min; 21-mers: 25 mM KCl, 0.25 M Arg/Glu, 20 mM Tris-HCl pH 7.5, 0.1 mM EDTA, 0.1 mM TCEP, 0.02% Tween 20; 8-mers: 35 mM. To be noted: protein: recombinant; label: 5' fluorescein; G-quadruplex (parallel).

The next series addresses RRM tandem Y19A (human, UniProt Q07955 1-196, Y19A). The series is described as above. To be noted: protein: recombinant; tags: SUMO; label: 5' fluorescein; G-quadruplex (parallel).
A further series concerns the target RRM tandem R173A (human, UniProt Q07955 1-196, R173A). Described as above. To be noted: protein: recombinant; tags: SUMO; label: 5' fluorescein; G-quadruplex (parallel).
A further series has as its target RRM tandem Q135A (human, UniProt Q07955 1-196, Q135A). Described as above. To be noted: protein: recombinant; tags: SUMO; label: 5' fluorescein; G-quadruplex (parallel).
The target of another series is RRM tandem WT (Table 3) (human, UniProt Q07955 1-196). The series is described as above. To be noted: protein: recombinant; tags: SUMO; label: 5' fluorescein; G-quadruplex (parallel).
Chain of RRM tandem WT (Table 3) (Q07955 1-196): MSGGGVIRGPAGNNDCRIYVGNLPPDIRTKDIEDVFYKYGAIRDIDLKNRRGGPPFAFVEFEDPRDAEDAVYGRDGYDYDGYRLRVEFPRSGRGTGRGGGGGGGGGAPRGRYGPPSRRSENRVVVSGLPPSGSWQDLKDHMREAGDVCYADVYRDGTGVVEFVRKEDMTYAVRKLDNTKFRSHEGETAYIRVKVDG
Another series concerns the target RRM tandem W134A (human, UniProt Q07955 1-196, W134A). The series is described as above. To be noted: protein: recombinant; tags: SUMO; label: 5' fluorescein; G-quadruplex (parallel).
The target of the next series is RRM tandem F56A (human, UniProt Q07955 1-196, F56A). The description is as above. To be noted: protein: recombinant; tags: SUMO; label: 5' fluorescein; G-quadruplex (parallel).
Chain of RRM tandem F56A (Q07955 1-196 F56A): as the sequence (Q07955 1-196) above, with F56A counted along it
A further series addresses RRM tandem F58A (human, UniProt Q07955 1-196, F58A). Described as above. To be noted: protein: recombinant; tags: SUMO; label: 5' fluorescein; G-quadruplex (parallel).
Another series has as its target RS mutant KS (human, UniProt Q07955 198-248, R198K;R204K;R206K;R208K;R210K;R212K;R214K;R216K;R218K;R222K;R224K;R229K;R230K;R2 …). Described as above. To be noted: protein: recombinant; tags: none (SUMO cleaved); label: 5' fluorescein; G-quadruplex (parallel).
For a further series, the target named is RS mutant RA (human, UniProt Q07955 198-248, S199A;S201A;S205A;S207A;S209A;S211A;S213A;S215A;S217A;S219A;S221A;S223A;S225A;S2 …). Nature of the series: FP; similar affinity to RS; FP, 10 nM RNA, 37 C 30 min then 25 C 10 min; 21-mers: 25 mM KCl, 0.25 M Arg/Glu, 20 mM Tris-HCl pH 7.5, 0.1 mM EDTA, 0.1 mM TCEP, 0.02% Tween 20; 8-mers: 35 mM. To be noted: protein: recombinant; tags: none (SUMO cleaved); label: 5' fluorescein; G-quadruplex (parallel).

T2 sequence (Q07955 1-196): as the sequence (Q07955 1-196) above
Chain of RRM tandem W134A (Q07955 1-196 W134A): as the sequence (Q07955 1-196) above, with W134A counted along it
Chain of RRM tandem Q135A (Q07955 1-196 Q135A): as the sequence (Q07955 1-196) above, with Q135A counted along it
Chain of RRM tandem Y19A (Q07955 1-196 Y19A): as the sequence (Q07955 1-196) above, with Y19A counted along it
Chain of RRM tandem R173A (Q07955 1-196 R173A): as the sequence (Q07955 1-196) above, with R173A counted along it
Chain of RRM tandem F58A (Q07955 1-196 F58A): as the sequence (Q07955 1-196) above, with F58A counted along it

B1: AAA 3-mer (ssRNA)
RNA: AAA
As to B1, in the series with SRSF1 RS [1], the binding result was “no binding”.

B2: 8U (ssRNA)
RNA: UUUUUUUU
For the molecule B2, in the series with SRSF1 RS [2], the Kd is 550 ± 21 nM.

B3: TERRA GQ (structured_RNA)
RNA: UGGGUUAGGGUUAGGGUUAGGG
On to B3, for which the Kd amounted to 3200 ± 290 nM with SRSF1 RRM tandem [3] (G-quadruplex), 26 ± 2 nM with SRSF1 RS [4] (G-quadruplex) and 4.6 ± 0.5 nM in the series with SRSF1 full-length (G-quadruplex).

B4: MMP16 GQ (structured_RNA)
RNA: UUGGGAGGGAGGGAGAGGGUU
Turning to B4, the Kd in the series with SRSF1 RRM tandem [3] (G-quadruplex) turned out to be 3500 ± 490 nM; in the series with SRSF1 RS [4] (G-quadruplex), 150 ± 10 nM; with SRSF1 full-length (G-quadruplex) it was 5.9 ± 0.6 nM.

B5: 21-mer GA (ssRNA)
RNA: GAGAGAGAGAGAGAGAGAGAG
As to B5, the Kd with SRSF1 RS [4] was 210 ± 16 nM.

B6: 8A (ssRNA)
RNA: AAAAAAAA
As to B6, the Kd with SRSF1 RS [2] was determined as 610 ± 15 nM.

B7: 4GA (ssRNA)
RNA: GAGAGAGA
For B7, the Kd in the series with SRSF1 RS [2] came out at 83 ± 3 nM.

B8: UUU 3-mer (ssRNA)
RNA: UUU
As for B8, the binding result with SRSF1 RS [1] is given as “no binding”.

B9: 4CU (ssRNA)
RNA: CUCUCUCU
As to B9, the Kd with SRSF1 RS [2] was 470 ± 12 nM.

B10: 8G (structured_RNA)
RNA: GGGGGGGG
With B10, the Kd in the series with SRSF1 RS [2] (intermolecular G-quadruplex) came to 3 ± 0.8 nM.

B11: 21-mer CU (ssRNA)
RNA: CUCUCUCUCUCUCUCUCUCUC
With B11, the Kd in the series with SRSF1 RS [4] worked out at 1400 ± 100 nM.

B12: GGG motif RNA (ssRNA)
RNA: UCAGAGGG
Turning to B12, in the series with SRSF1 RRM tandem [5], the binding signal is ~3 fold weaker than GGA motif.

B13: GGG 3-mer (ssRNA)
RNA: GGG
In the case of B13, in the series with SRSF1 RS [6], the binding result is recorded as “binds”.

B14: ARPC2 GQ (structured_RNA)
RNA: GGGGGCUGGGCGGGGACCGGG
As for B14, the binding result is on record as “no binding” in the series with RRM1/RRM2 linker, “no binding” with RS mutant KS and “binds” with RS mutant RA. Moreover, the Kd is 1800 ± 160 nM in the series with RRM tandem Y19A; 140 ± 12 nM with RRM tandem R173A; 350 ± 20 nM in the series with RRM tandem Q135A; 220 ± 19 nM in the series with SRSF1 RRM tandem [3] (G-quadruplex (parallel)); 250 ± 22 nM in the series with SRSF1 RS [4] (G-quadruplex (parallel)); 130 ± 11 nM with RRM tandem WT (Table 3). Also, the Kd with RRM tandem W134A was determined as 1200 ± 90 nM; in the series with RRM tandem F56A, 7000 ± 1500 nM; in the series with RRM tandem F58A, 1500 ± 80 nM; in the series with SRSF1 full-length (G-quadruplex (parallel)) it was 3.6 ± 0.7 nM.
